Experiment [1] has as its target CelTOS N-terminal truncation mutant (Gly51–Asp196) (Plasmodium vivax). The experiment is described as follows: SEC. On the technique in general: In gel filtration, larger molecules generally elute earlier.
Experiment [2] addresses CelTOS double mutant Lys122Asp, Leu164Asp (Plasmodium vivax). As to the kind of experiment: SEC.

For “CelTOS N-terminal truncation mutant (Gly51–Asp196) (domain or fragment)”, the stoichiometry N in experiment [1] turned out to be 2.
“CelTOS double mutant Lys122Asp, Leu164Asp (natural protein)” showed a stoichiometry N in experiment [2] of 2.

For orientation: stoichiometry N means a count of units in the complex or per binding partner.

Values taken from paper PMC9400078.
